Article PMC12263440
Where “and” joins values, the source holds several entries; their conditions need not be identical. Equal entries are not always repeated.

Target: nucleosome containing the 193-bp Widom 601 DNA (24-bp linker DNAs at both ends) (human) (UniProt P04908)
Experiment: mass photometry; 193-bp 601 nucleosome (1 µM) and DEK (2 µM) in 18 mM Tris-HCl pH 7.5, 60 mM NaCl, overnight at room temperature; diluted 1:40 for recording

With “recombinant human DEK protein (wild type) (from UniProt P35659 1-375) (natural protein)” as the substance, how does the stoichiometry N (DEK molecules per nucleosome) read?
The stoichiometry N (DEK molecules per nucleosome) was 1 and 2.
